Experimental data as given in article PMC4749553 (2015).

Biological target: T1, His6-Tim44(43–263) (Saccharomyces cerevisiae (strain ATCC …, UniProt Q01852))
T1 chain: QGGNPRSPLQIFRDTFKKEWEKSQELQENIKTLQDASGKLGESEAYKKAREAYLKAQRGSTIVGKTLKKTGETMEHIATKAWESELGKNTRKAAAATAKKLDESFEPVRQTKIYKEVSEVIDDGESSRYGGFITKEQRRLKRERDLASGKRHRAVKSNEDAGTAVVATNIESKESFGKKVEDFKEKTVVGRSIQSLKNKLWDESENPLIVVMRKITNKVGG
Experiment: Ni-NTA pull-down, Coomassie-stained SDS-PAGE

binding result: no binding
B1: Tim44(211–431) (protein)
chain: NIESKESFGKKVEDFKEKTVVGRSIQSLKNKLWDESENPLIVVMRKITNKVGGFFAETESSRVYSQFKLMDPTFSNESFTRHLREYIVPEILEAYVKGDVKVLKKWFSEAPFNVYAAQQKIFKEQDVYADGRILDIRGVEIVSAKLLAPQDIPVLVVGCRAQEINLYRKKKTGEIAAGDEANILMSSYAMVFTRDPEQIDDDETEGWKILEFVRGGSRQFT
